This is an account of results in patent US20250346668A1.

This experiment addresses Human CD3e/g protein (human) (UniProt P07766). As to the kind of experiment: ELISA, coated hCD3e/g.

Numbering of substitutions follows the chain as printed.

B1: mAb001 (antibody, V domains shown)
VH: QVQLQQSGPELVKPGASVKISCKASGYSFTNYYMHWVKQRPGQGLEWIGWTYPGNNNIKYNEKFKGKATLTADTSSSTAYMQLSSLTSEDSAVYYCARDGYGYYFFDYWGQGIILTVSS
VL: DIVMSQSPSSLAVSAGEKVTMSCKSSQSLLNNRTRKNYLAWYQQKPGQSPKLLIYWASTRESGVPDRFTGSGSGTDFTLTISSVQAEDLAIYYCKQSYTLRTFGGGTKLAIK
For orientation: EC50 means the concentration that produces a half-maximal response. Read a low EC50 as higher potency in that assay. Turning to B1, the EC50 worked out at 0.21 nM, the OD450 nm at 0.000853 nM is 0.207 OD450 nm, the OD450 nm at 0.0043 nM came to 0.12 OD450 nm and the OD450 nm at 0.02 nM stood at 0.24 OD450 nm. This molecule also came in with an OD450 nm at 0.11 nM of 0.89 OD450 nm, an OD450 nm at 0.53 nM of 3.2 OD450 nm, an OD450 nm at 2.67 nM of 3.64 OD450 nm and an OD450 nm at 13.3 nM of 3.67 OD450 nm. This molecule displayed an OD450 nm at 66.7 nM of 3.67 OD450 nm.

B2: mAb007 (antibody, V domains shown)
VH: QVQLQQSGPELVKPGASVKISCKASGSTFTDNYIHWVKQRPGQGLEWIGWIYPGSVNIKYNEKFKDKATLTADTSSTTAYMQLSSLSSEDSAIYYCARDISRYYFDYWGQGTTLTVSS
VL: B1 VL with K18R, S22N, N32S, I91V, Y98F, T99I
For B2, the EC50 came out at 0.22 nM, the OD450 nm at 0.000853 nM was found to be 0.123 OD450 nm, the OD450 nm at 0.0043 nM was 0.111 OD450 nm and the OD450 nm at 0.02 nM turned out to be 0.27 OD450 nm. Further, the OD450 nm at 0.11 nM came to 0.76 OD450 nm, the OD450 nm at 0.53 nM stood at 2.96 OD450 nm, the OD450 nm at 2.67 nM is 3.39 OD450 nm and the OD450 nm at 13.3 nM came to 3.47 OD450 nm. Besides, the OD450 nm at 66.7 nM amounted to 3.41 OD450 nm.
